# Values quoted from earlier work in patent publication US20150182632A1, “ANTI-INTERLEUKIN-1 (IL-1) ANTIBODY USED AS A TARGETING AGENT TO TREAT ARTHRITIS AND OTHER DISEASES” (priority 2012, published 2015).
# Target: T1, IL-1 (Homo sapiens, UniProt P01584)
# T1 construct: Patients with arthritis and other inflammatory diseases produce IL-1 which is present in the blood; host or cells: endogenous IL-1 of RA patients (in vivo)
# Details: several intravenous injections
substance,measurement,value
ACZ885: anti-IL-1 monoclonal antibody,clinical response of RA patients,clinical improvement
